From PMC10726167

Biological target: FIV Pr50^Gag-His6-tagged protein (feline immunodeficiency virus Gag precursor polyprotein) (feline immunodeficiency virus (Petaluma strain 34TF10))
Experiment: dynamic light scattering; purified Pr50^Gag in solution, HEPES-KOH buffer (pH 8); hydrodynamic radius from volume and number distribution

With “FIV Pr50^Gag-His6-tagged protein (feline immunodeficiency virus Gag precursor polyprotein) (natural protein)” the stoichiometry N was 2.
